Experimental findings from paper PMC9371925 (Nucleic Acids Research, 2022) are described below.

Data set [1] deals with Streptomyces coelicolor zinc uptake regulator (ScZur) (Streptomyces coelicolor M145). Nature of the data set: cryo-EM structure.
Data set [2] addresses T1, ScZur (Streptomyces coelicolor M145, UniProt Q9L2H5 1-139).
T1 sequence: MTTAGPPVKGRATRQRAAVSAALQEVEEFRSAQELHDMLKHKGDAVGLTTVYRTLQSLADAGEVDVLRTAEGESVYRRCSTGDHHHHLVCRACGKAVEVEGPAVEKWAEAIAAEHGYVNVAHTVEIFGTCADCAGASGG
Nature of the data set: EMSA.

The target of data set [3] is T1, ScZur. Nature of the data set: EMSA. This is another data set of the same source. A general note: Mobility shift assays separate free from complexed probe on a gel.
The data set “cryo-EM structure” concerns the molecule itself. As to the kind of experiment: cryo-EM structure.

Residue numbers refer to the chain shown, from its start. Several values for one entry are separate records, joined by “and”; a condition that tells them apart may be missing. Identical values can stand only once. Like-named read-outs stand apart in the source and are kept apart here.

The term stoichiometry N denotes a count of units in the complex or per binding partner. In the case of “Streptomyces coelicolor zinc uptake regulator (ScZur) (natural protein)”, in data set [1], the stoichiometry N is 6 and 4.

B1: zitB Zur-box 33 bp (-68 to -36) (dsDNA)
DNA 1: CAAGGCACATGACAACGGTGTTCAGTGCCGCGT
DNA 2: ACGCGGCACTGAACACCGTTGTCATGTGCCTTG
By Kd is commonly meant the constant that tells how readily two partners part at equilibrium. Turning to B1, binding with ScZur [2] was characterised by a dissociation constant (Kd) of 0.034 ± 0.0007 µM.

B2: M2 33 bp (dsDNA)
DNA 1: B1 DNA 1 with G11C, G17T, C23G
DNA 2: B1 DNA 2 with G11C, C17A, C23G
B2: the dissociation constant Kd in the data set with ScZur [3] was 0.223 ± 0.0305 µM.

B3: Streptomyces coelicolor RNA polymerase α subunit (natural protein, Streptomyces coelicolor M145)
chain: MLIAQRPSLTEEVVDEFRSRFVIEPLEPGFGYTLGNSLRRTLLSSIPGAAVTSIRIDGVLHEFTTVPGVKEDVTDLILNIKQLVVSSEHDEPVVMYLRKQGPGLVTAADIAPPAGVEVHNPDLVLATLNGKGKLEMELTVERGRGYVSAVQNKQVGQEIGRIPVDSIYSPVLKVTYKVEATRVEQRTDFDKLIVDVETKQAMRPRDAMASAGKTLVELFGLARELNIDAEGIDMGPSPTDAALAADLALPIEELELTVRSYNCLKREGIHSVGELVARSEADLLDIRNFGAKSIDEVKAKLAGMGLALKDSPPGFDPTAAADAFGADDDADAGFVETEQY
For the molecule B3, in “cryo-EM structure”, the binding result was “binds”.
